Test results taken from paper PMC12809912 (2025).
Ends that are not written are not given here. * marks the point of attachment. Biotin = O=C1N[C@H]2[C@H](CS[C@H]2CCCCC(=O)*)N1

T1: biotinylated DEFA5 epitope peptide Biotin-RATCYCRTGRCAT (human, cysteine pairing not given here)
T1 peptide: Biotin-RATCYCRTGRCAT


Biological target: T1, biotinylated DEFA5 epitope peptide …
Experiment: SPR

| koff | Binder |
| --- | --- |
| 0.00261 s⁻¹ | mouse monoclonal antibody clone 4F5 (anti-DEFA5) (antibody, V domains shown, Fc glycosylation, G1F lower and afucosylated G0 ~15 % (intact ESI-MS)) VH: QVQLQQSGAELVRPGASVKMSCKALGYTFFDYEMHWMKQTPVYGLEWIGAIHPGSGDTAYNQKFKGKATLTADKSSNTAYMELSSLTSEDSAVYYCTREGTVVAPFDYWGQGTTLTVSS VL: DVLMTQTPLSLPVSLGDQASISCRSSQSIVHSNGNTYLEWYLQKPGQSPKLLINKVSNRFSGVPDRFSGSGSGTDFTLKISRVEAEDLGVYYCFQGSYVPYTFGGGTKLEIK |
| 0.00253 s⁻¹ | mouse monoclonal antibody clone 1A8 (anti-DEFA5) (antibody, V domains shown, Fc glycosylation, mainly the G1F glycoform (intact ESI-MS)) VH: QVQLQQSGAELVRPGASVKMSCKALGYTFFDYEMHWMKQTPVYGLEWIGAIHPGSGDTAYNQKFKGKATLTADKSSNTAYMELSSLTSEDSAVYYCTREGTVVAPFDYWGQGTTLTVSS VL: DVLMTQTPLSLPVSLGDQASISCRSSQSIVHSNGNTYLEWYLQKPGQSPKLLINKVSNRFSGVPDRFSGSGSGTDFTLKISRVEAEDLGVYYCFQGSYVPYTFGGGTKLEIK |
